Laboratory results taken from patent US20190127473A1 (Dana-Farber, published 2019).

Legend:
[1] = molecular target: T1, recombinant human galectin-2 (human, UniProt P05162 2-132, limits assumed); assay: SPR (BIAcore 3000), 8F4 captured by anti-mouse antibody on CM-5 chip, galectin as analyte
T1 construct: Bought; also called Gal2; Ga12 (so in the source)
T1 sequence (looked up): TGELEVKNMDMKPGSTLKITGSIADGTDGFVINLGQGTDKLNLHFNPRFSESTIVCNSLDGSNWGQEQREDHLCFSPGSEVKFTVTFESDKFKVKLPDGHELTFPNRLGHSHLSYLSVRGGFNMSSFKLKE
Protocol: (§1) Surface Plasmon Resonance (SPR) analyses (also called Biomolecular Interaction Analysis, BlAcore) were also conducted in order to further define the biophysical properties (e.g., kₒₙ, koff, koffkₒₙ (KD) of Gal1's interaction with the 8F4 mAb. SPR experiments were performed at 25° C. in the standard BlAcore running buffer HBS-EP on a BlAcore 3000 Instrument (BlAcore). In brief, anti-mouse antibody was first captured on the CM-5 sensor chip (GE HealthCare). Afterwards, approximately 250 response units (RU) of the 8F4 anti-Gal1 mAb were immobilized (with exception of ˜350 RU for rmGal1 assay) and followed by various dilutions of recombinant galectin (human galetin-1, 2, 3, 4, 7, 8, 9 or murine galectin-1 (mGal1), from R&D Systems) to assess the binding of galectin to 8F4. All data are shown after subtraction from a channel loaded with buffer alone. Data analysis to obtain the binding curves shown and equilibrium dissociation constant (KD) was performed using BlAevaluation 3.1 (BlAcore) by globally fitting the data to a simple 1:1 (Langmuir) binding model.

[2] = molecular target: T2, recombinant human galectin-9 (human, UniProt O00182-2 2-323, limits assumed); assay: as above
T2 construct: Bought; also called Gal9; Ga19 (so in the source)
T2 sequence (O00182 other isoform, or with tags, fused parts or gaps limits assumed): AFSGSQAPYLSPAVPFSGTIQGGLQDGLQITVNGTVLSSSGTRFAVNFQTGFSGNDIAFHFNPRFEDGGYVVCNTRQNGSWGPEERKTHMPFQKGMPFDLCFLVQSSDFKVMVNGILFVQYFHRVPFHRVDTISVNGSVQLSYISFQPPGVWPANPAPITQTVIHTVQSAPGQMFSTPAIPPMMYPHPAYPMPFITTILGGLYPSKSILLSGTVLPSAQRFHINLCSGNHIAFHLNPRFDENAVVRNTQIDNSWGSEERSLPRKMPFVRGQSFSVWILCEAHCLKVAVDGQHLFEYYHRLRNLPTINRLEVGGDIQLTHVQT
Protocol: as §1

[3] = molecular target: T3, recombinant human galectin-4 (human, UniProt P56470 2-323, limits assumed); assay: as above
T3 construct: Bought; also called Gal4; Ga14 (so in the source)
T3 sequence (looked up): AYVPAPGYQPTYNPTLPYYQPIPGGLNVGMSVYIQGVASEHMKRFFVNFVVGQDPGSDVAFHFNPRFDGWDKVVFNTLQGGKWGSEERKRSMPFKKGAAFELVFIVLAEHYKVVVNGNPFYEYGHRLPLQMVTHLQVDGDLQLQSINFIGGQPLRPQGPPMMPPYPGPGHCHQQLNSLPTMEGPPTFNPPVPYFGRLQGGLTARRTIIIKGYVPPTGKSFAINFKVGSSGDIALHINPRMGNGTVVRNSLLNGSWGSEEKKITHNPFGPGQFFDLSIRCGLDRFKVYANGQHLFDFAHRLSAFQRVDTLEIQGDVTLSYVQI
Protocol: as §1

[4] = molecular target: T4, recombinant human galectin-3 (human, UniProt P17931 2-250); assay: as above
T4 construct: Bought; also called Gal3; Ga13 (so in the source)
T4 sequence (P17931 2-250 limits assumed): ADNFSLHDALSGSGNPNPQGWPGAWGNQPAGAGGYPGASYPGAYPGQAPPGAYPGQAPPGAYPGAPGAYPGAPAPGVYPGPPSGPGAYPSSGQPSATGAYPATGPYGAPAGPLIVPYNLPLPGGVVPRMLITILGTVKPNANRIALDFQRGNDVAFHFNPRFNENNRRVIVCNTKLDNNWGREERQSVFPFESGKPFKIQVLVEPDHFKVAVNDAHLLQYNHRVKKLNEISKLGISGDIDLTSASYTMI
Protocol: as §1

[5] = molecular target: T5, recombinant human galectin-8 (human, UniProt O00214 1-317, limits assumed); assay: as above
T5 construct: Bought; also called Gal8; Ga18 (so in the source)
T5 sequence (looked up): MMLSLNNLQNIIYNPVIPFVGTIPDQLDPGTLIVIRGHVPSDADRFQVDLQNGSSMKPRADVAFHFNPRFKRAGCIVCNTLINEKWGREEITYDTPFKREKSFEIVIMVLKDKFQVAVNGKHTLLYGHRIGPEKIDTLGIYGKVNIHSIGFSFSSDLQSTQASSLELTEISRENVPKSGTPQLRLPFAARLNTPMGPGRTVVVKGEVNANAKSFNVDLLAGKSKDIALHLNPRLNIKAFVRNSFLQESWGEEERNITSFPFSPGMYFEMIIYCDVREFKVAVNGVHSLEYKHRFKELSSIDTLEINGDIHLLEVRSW
Protocol: as §1

[6] = molecular target: T6, recombinant human galectin-7 (human, UniProt P47929 2-136, limits assumed); assay: as above
T6 construct: Bought; also called Gal7; Ga17 (so in the source)
T6 sequence (P47929 2-136 limits assumed): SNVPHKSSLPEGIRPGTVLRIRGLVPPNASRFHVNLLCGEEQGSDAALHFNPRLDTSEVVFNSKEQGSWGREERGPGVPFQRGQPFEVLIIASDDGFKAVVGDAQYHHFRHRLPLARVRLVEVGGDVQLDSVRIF
Protocol: as §1

mouse galectin-1 (Gal1) = molecular target: T7, mouse galectin-1 (Gal1) (mouse, UniProt P16045 2-135); assay: SPR (BIAcore 3000, 25 C, HBS-EP), 8F4 captured by anti-mouse antibody on CM-5 chip, galectin as analyte, 1:1 Langmuir fit; rmGal1 as analyte; ~350 RU of 8F4 captured
T7 construct: Used as recombinant protein bought from R&D Systems (SPR) and as endogenous protein in B16-F10 cell lysate (Western blot); also called mGal1; rmGal1
T7 sequence (P16045 2-135 limits assumed): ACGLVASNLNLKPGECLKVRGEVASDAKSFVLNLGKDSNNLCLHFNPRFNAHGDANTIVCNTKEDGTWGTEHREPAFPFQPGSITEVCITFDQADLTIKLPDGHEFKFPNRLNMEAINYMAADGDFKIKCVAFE
Protocol: as §1

human galectin-1 (Gal1) = molecular target: T8, human galectin-1 (Gal1) (human, UniProt P09382 2-135); assay: SPR (BIAcore 3000, 25 C, HBS-EP), 8F4 captured by anti-mouse antibody on CM-5 chip, galectin as analyte, 1:1 Langmuir fit; rhGal1 as analyte; ~250 RU of 8F4 captured
T8 construct: Used as recombinant protein bought from R&D Systems (SPR) and as endogenous protein in L428 cell lysate (Western blot); also called hGal1; rhGal1
T8 sequence (P09382 2-135 limits assumed): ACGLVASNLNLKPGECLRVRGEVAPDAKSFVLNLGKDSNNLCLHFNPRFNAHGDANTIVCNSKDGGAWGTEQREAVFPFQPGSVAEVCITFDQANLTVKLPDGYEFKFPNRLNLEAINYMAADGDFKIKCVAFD
Protocol: as §1

B1: 8F4 anti-Gal1 monoclonal antibody (antibody, V domains shown)
VH: EVQLQQSVAEFVRPGASVRLSCTASGFNIKNTYIHWVRQRPEQGLEWIGKIDPANGNTKYVPEFQGKATMTADTSSNTVYLHLSSLTSEDTAIYYCVDGYYGWYFAVWGTGTTVTVSS
VL: QAVVTQESALTTSPGETVTLTCRSSTGAVTTSNYANWVQEKPDHLFTGLIGATNNRAPGVPARFSGSLIGDKAVLTITGAQTEDEAIYFCALWYRNHFIFGSGTKVTVL
notes: Hybridoma monoclonal antibody; The light chain is lambda; Hybridoma 8F4.F8.G7 is deposited as ATCC PTA-10535; also called 8F4 mAb; 8F4.F8.G7
binding result [1]: no binding
binding result [2]: no binding
binding result [3]: no binding
binding result [4]: no binding
binding result [5]: no binding
binding result [6]: no binding
Kd (mouse galectin-1 (Gal1)): 38.5 nM
Kd (human galectin-1 (Gal1)): 13 nM
